Laboratory results as given in patent US20210171647A1 (WUXI BIOLOGICS SHANGHAI, published 2021).
Residue numbers refer to the chain shown, from its start. One block for each binder: values may come before it.

Experiments:
[1] = target: T1, human OX40 extracellular domain (ECD) protein (human, UniProt P43489 29-214); assay: epitope binning by competition against labelled BMK7 on human OX40; the antibody named in the legend box is titrated; the text describes an ELISA, the axis on the sheet reads MFI
T1 construct: extracellular domain; also called human OX40 ECD; human OX40 protein; not shown: human Fc or His tag
T1 sequence (looked up): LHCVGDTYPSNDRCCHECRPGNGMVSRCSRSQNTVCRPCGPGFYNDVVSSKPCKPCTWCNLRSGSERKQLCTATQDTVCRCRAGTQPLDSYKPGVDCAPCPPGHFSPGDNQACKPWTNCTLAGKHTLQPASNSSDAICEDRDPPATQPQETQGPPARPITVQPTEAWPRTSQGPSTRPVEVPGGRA

human 4-1BB (CD137) ECD = target: T2, human 4-1BB (CD137) ECD (human, UniProt Q07011 24-186); assay: ELISA on coated ECD, one antibody concentration (not given)
T2 construct: extracellular domain
T2 sequence (Q07011 24-186): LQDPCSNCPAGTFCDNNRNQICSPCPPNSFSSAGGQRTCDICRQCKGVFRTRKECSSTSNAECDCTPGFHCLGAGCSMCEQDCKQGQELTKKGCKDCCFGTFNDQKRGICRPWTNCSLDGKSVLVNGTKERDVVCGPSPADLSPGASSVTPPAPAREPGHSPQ

human CD271 ECD = target: T3, human CD271 ECD (human, UniProt P08138 29-250); assay: as above
T3 construct: extracellular domain
T3 sequence (looked up): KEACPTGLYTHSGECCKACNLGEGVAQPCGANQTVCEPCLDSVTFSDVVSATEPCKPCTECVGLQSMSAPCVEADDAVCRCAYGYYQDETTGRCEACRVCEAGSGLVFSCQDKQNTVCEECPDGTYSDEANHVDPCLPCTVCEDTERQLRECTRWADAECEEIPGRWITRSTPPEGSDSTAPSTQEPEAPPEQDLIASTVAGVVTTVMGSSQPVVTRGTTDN
Procedure: (§1) Human OX40, CD40, 4-1BB (CD137) and CD271 ECD were coated on plates (Nunc) overnight at 4° C. After blocking and washing, testing antibodies were diluted in blocking buffer and added to the plates and incubated at room temperature for 1 h. The plates were then washed and subsequently incubated with secondary antibody goat anti-human IgG Fc-HRP (Bethyl) for 1 h. After washing, TMB substrate was added and the interaction was stopped by 2M HCl.

human CD40 ECD = target: T4, human CD40 ECD (human, UniProt P25942 21-193); assay: as above
T4 construct: extracellular domain
T4 sequence (P25942 21-193): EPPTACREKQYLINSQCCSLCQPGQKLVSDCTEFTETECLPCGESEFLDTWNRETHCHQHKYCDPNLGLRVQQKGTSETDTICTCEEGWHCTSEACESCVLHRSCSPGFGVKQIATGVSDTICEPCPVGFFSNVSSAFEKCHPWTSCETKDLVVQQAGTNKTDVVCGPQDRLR
Procedure: as §1

[2] = target: T1, human OX40 extracellular domain (ECD) …; assay: SPR, Biacore T200, antibody captured, OX40 as analyte
Procedure: Antibodies were characterized for affinity and binding kinetics to OX40 by SPR assay using Biacore T200 (GE). […] Then various concentrations of human or monkey OX40 and running buffer were flowed through the sensor chip at a flow rate of 30 μL/min for an association phase of 180 s, followed by dissociation. The association and dissociation curve was fit by 1:1 Langmuir binding model using the BIAevaluation T200 software.

[3] = target: T5, human OX40, full-length, on cells (human, UniProt P43489 29-277); assay: flow cytometry on human OX40 transfected CHO-K1 cells
T5 construct: whole, on cells; also called hPro1; cell surface human OX40
T5 sequence (looked up): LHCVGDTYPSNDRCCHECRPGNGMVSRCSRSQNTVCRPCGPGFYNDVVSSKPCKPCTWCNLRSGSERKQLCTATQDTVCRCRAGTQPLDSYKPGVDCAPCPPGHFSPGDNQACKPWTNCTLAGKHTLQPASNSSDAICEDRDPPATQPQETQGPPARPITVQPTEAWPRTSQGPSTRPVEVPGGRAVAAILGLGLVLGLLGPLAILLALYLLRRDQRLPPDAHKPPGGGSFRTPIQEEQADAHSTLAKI
Procedure: (§2) CHO-K 1 cells expressing human OX40 were transferred in to 96-well U-bottom plates (Corning) at a density of 5×10⁴ cells/mL. Testing antibodies were 1:2 serially diluted in wash buffer (1×PBS/1% BSA) and incubated with cells at 4° C. for 1 h. The secondary antibody goat anti-human IgG Fc FITC (3.2 moles FITC per mole IgG, Jackson Immunoresearch Lab) was added and incubated with cells at 4° C. in the dark for half an hour. The cells were then washed once, resuspended in 1×PBS/1% BSA and analyzed by flow cytometry (BD). Fluorescence intensity was converted to bound molecules/cell based on the quantitative beads Quantum™ MESF Kits (Bangs Laboratories, Inc.). The KD value of each antibody was calculated using Graphpad Prism5.

[4] = target: T5, human OX40, full-length, on cells; assay: flow cytometry on activated human CD4+ T cells
Procedure: Briefly, human OX40-expressing CHO-K1 cells or activated human CD4⁺ T cells were transferred into 96-well U-bottom plates (Corning) at a density of 1×10⁵ cells/well. Testing antibodies were serially diluted in wash buffer (1×PBS/1% BSA) and incubated with cells at 4° C. for 1 h. After washing with 1×PBS/1% BSA, the secondary antibody goat anti-human IgG Fc-PE (Jackson ImmunoResearch Lab) was applied and incubated with cells at 4° C. in the dark for 1 h. The cells were then washed and resuspended in 1×PBS/1% BSA or fixed with 4% paraformaldehyde, and then analyzed by flow cytometry (BD).

[5] = target: T1, human OX40 extracellular domain (ECD) …; assay: competition ELISA: human OX40 ECD coated, antibody titrated in a mix with a constant concentration of OX40L, bound OX40L detected at OD450
Procedure: Briefly, plates (Nunc) were coated with human OX40 ECD at 1 μg/mL overnight at 4° C. […] After washing, TMB substrate was added and the interaction was stopped by 2M HCl.

[6] = target: T5, human OX40, full-length, on cells; assay: flow cytometry, MFI against antibody concentration; neither the legend nor paragraph 266 names the cells, target taken as cell-surface human OX40 because the antibodies are anti-OX40
[7] = target: T6, mouse OX40 (mPro1) on transfected 293F cells (mouse, UniProt P47741 20-272); assay: FACS, transfected 293F cells, antibody 1 ug/mL
T6 construct: whole, on cells
T6 sequence (looked up): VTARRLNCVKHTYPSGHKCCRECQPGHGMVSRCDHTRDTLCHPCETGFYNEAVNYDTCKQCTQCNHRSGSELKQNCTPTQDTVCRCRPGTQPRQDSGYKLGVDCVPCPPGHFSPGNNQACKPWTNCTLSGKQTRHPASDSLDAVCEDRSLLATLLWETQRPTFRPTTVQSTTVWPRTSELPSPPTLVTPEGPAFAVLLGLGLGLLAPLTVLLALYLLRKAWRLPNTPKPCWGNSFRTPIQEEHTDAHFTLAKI
Procedure: (§3) Binding of antibodies to chimeric OX40 variants was analyzed by flow cytometry. […] Cells were analyzed using flow cytometer.

[8] = target: T5, human OX40, full-length, on cells; assay: FACS, transfected 293F cells, antibody 1 ug/mL
Procedure: as §3

[9] = target: T7, rhesus monkey OX40 on transfected 293F cells (rhesus monkey); assay: flow cytometry on rhesus monkey OX40 transfected 293F cells
T7 construct: whole, on cells
Procedure: Testing antibodies were serially diluted in wash buffer (1×PBS/1% BSA) and incubated with cells at 4° C. for 1 h. After washing with 1×PB S/1% BSA, the secondary antibody goat anti-human IgG Fc-PE (Jackson ImmunoResearch Lab) was applied and incubated with cells at 4° C. in the dark for 1 h. The cells were then washed and resuspended in 1×PB S/1% BSA or fixed with 4% paraformaldehyde, and then analyzed by flow cytometry (BD).

[10] = target: T1, human OX40 extracellular domain (ECD) …; assay: epitope binning by competition against labelled BMK10 on human OX40; the antibody named in the legend box is titrated; the text describes an ELISA, the axis on the sheet reads MFI
[11] = target: T5, human OX40, full-length, on cells; assay: flow cytometry, CHO-K1 cells expressing human OX40, MESF beads
Procedure: as §2

B1: 1.7.10-u1-IgG1K (antibody, V domains shown)
VH: QVHLVESGGGLVKPGGSLRLSCAASGFTFSDYYMSWIRQAPGKGLEWVSYISGSGNTIYYADSVKGRFTISRDNAKNSLYLQMNSLRADDTAVYFCARERGAAGTGWFDPWGQGTLVTVSS
VL: DIQMTQSPSSVSASVGDRVTITCRASQGISSWLAWYQQKPGKAPKLLIYAASSLQGGVPSRFSGSGSGTDFTLTISSLQPEDFATYYCQQVNSFPWTFGQGTKVEIK
notes: fully human IgG1, kappa
- IC50 (read off the curve) [1]: ~4 nM
- binding result (human 4-1BB (CD137) ECD): no binding
- binding result (human CD271 ECD): no binding
- binding result (human CD40 ECD): no binding
- Kd [2]: 1.49 nM
- koff [2]: 0.00128 s⁻¹
- kon [2]: 860000 M⁻¹ s⁻¹
- EC50 (read off the curve) [3]: ~1 nM
- EC50 (read off the curve) [4]: 1 to 2 nM
- IC50 (read off the curve) [5]: ~3 nM

B3: 1.62.3-u1-IgG1K (antibody, V domains shown)
VH: QVQLQESGPGLVKPSQTLSLTCTVSGGSISNGGYYWSWIRQHPGKGLEWIGYIYYSGSTYYNPSLKSRVTISVDTSKNQFSLKLSSVTAADTAVYYCARDEWELRGFDYWGQGTLVTVSS
VL: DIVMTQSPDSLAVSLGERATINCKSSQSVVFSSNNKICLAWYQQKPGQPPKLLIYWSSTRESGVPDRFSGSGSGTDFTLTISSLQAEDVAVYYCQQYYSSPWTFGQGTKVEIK
notes: fully human IgG1, kappa
- binding result (human 4-1BB (CD137) ECD): no binding
- binding result (human CD271 ECD): no binding
- binding result (human CD40 ECD): no binding
- Kd [2]: 0.461 nM
- koff [2]: 0.000243 s⁻¹
- kon [2]: 526000 M⁻¹ s⁻¹
- EC50 (read off the curve) [6]: ~0.8 nM
- IC50 (read off the curve) [5]: ~1 nM

B4: 1.62.3-u1-3-IgG1K (antibody, V domains shown)
VH: B3 VH with G32A
VL: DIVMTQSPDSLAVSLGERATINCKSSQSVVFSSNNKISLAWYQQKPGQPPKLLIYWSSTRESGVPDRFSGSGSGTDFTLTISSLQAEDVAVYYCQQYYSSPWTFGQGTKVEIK
notes: fully human IgG1, kappa; PTM variant of 1.62.3-u1-IgG1K (G to A in CDRH1, C to S in CDRL1)
- Kd [2]: 2.08 nM
- koff [2]: 0.00145 s⁻¹
- kon [2]: 697000 M⁻¹ s⁻¹
- EC50 (read off the curve) [3]: ~0.9 nM
- EC50 (read off the curve) [6]: ~2 nM
- EC50 (read off the curve) [4]: ~0.8 nM

Continued, values first:

- IC50 (read off the curve) [1]: ~4 nM
- binding result (human 4-1BB (CD137) ECD): no binding
- binding result (human CD271 ECD): no binding
- binding result (human CD40 ECD): no binding
- Kd [2]: 1.16 nM
- koff [2]: 0.000451 s⁻¹
- kon [2]: 390000 M⁻¹ s⁻¹
- EC50 (read off the curve) [4]: ~2 nM
- IC50 (read off the curve) [5]: ~3 nM
B2: 1.186.19-u1-IgG1K (antibody, V domains shown)
VH: B1 VH with S35G, K43Q, R98K, T105A
VL: B1 VL with Y87H
notes: fully human IgG1, kappa

- MFI [7]: 49.9
- PE + % [7]: 0.315%
- MFI [8]: 8320
- PE + % [8]: 89.3%
- IC50 (read off the curve) [1]: ~1 nM
- binding result (human 4-1BB (CD137) ECD): no binding
- binding result (human CD271 ECD): no binding
- binding result (human CD40 ECD): no binding
- Kd [2]: 0.502 nM
- koff [2]: 0.000214 s⁻¹
- kon [2]: 426000 M⁻¹ s⁻¹
- EC50 (read off the curve) [9]: ~3 nM
- EC50 (read off the curve) [3]: ~0.6 nM
- IC50 (read off the curve) [10]: ~4 nM
- Kd [11]: 0.067 nM
- IC50 (read off the curve) [5]: ~1 nM
B5: 1.214.23-u1-IgG1K (antibody, V domains shown)
VH: QVQLQESGPGLVKPSGTLSLTCVVSGGSISNRNWWSWVRQPPGKGLEWIGEIFHSGNTNYNPSLKSRVTISVDKSKNQFSLKVNSVTAADTAVYYCAKSFAVALDSWGQGTLVTVSS
VL: DIQLTQSPSFLSASVGDRVTITCRASQDINSYLAWCQQKPGKAPKLLIYAASSLQSGVPSRFSGTGSGTEFTLTISSLQPEDFATYYCQQLFSYPITFGQGTRLEIK
notes: fully human IgG1, kappa
